Data: the supplement of paper PMC12042874
± gives the uncertainty stated by the source.

Assay: amyloid nucleation score (Sup35N fusion, yeast selection) (log enrichment); library NNK3; higher = more nucleation; inactive = no reads after selection
Method in brief: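 Plasmid inserts were Illumina-sequenced at input and output from psi-negative yeast expressing Sup35N fused to peptides of 20 random codons. The yeast were induced with 100 μM copper sulfate for 24 hours and grown 7 days at 30°C on medium lacking adenine and uracil, and sequences with under 100 input reads were excluded. Nucleation score is the DiMSum log enrichment of output over input reads, centred on the mode score of non-aggregating sequences.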

| Substance | amyloid nucleation score |
| --- | --- |
| YFFFLRICWMDSSLVFGLLS | inactive |
| YFFSDNRNFRVNPVSNR | inactive |
| YFGFIVKISYTVLFGLGSKC | inactive |
| YFINKMILIDPL | inactive |
| YFMCREMALILEHLCEAGWC | inactive |
| YFMVINR | 1.98 ± 0.071 |
| YFNLPISW | -0.316 ± 0.7 |
| YFRGPF | inactive |
| YFSFFQRVLWYRCAASFNLQ | -0.106 ± 0.63 |
| YFSKVIVDLKNSCIL | inactive |
| YFSMIVVGCVNFKELPDNRV | 1.78 ± 0.086 |
| YFSQVGRDCMFR | inactive |
| YFVFKIRKDVELLVYI | inactive |
| YFYKNLSSFHFGKMRLK | inactive |
| YFYLSICDVSMVGSEFIYSR | 0.373 ± 0.2 |
| YGCCVSGMYVALGLQ | 2.8 ± 0.068 |
| YGEEEVE | inactive |
| YGETAMRRSLTSLYNHMSLN | inactive |
| YGFNNWYKPSDLSRTPSESG | inactive |
| YGGDWCARTPCLSRVNSVKP | inactive |
| YGILLFGVSWWWAVSFFENF | inactive |
| YGPKV | inactive |
| YGRLLVGFLTITV | inactive |
| YGSMMHWKSLCLSSIC | inactive |

| Substance | amyloid nucleation score |
| --- | --- |
| YGSNSLPYKTGVYVKLSCN | inactive |
| YGSYVWYSLLVREWLNSPGY | inactive |
| YGTMFLENTYNPFPVGSHVF | inactive |
| YGTSATKRTALFWYDMTKFG | inactive |
| YHLSSMVTVWKDSVMLAT | inactive |
| YHRTFWSFGSKVFLRVNWCR | inactive |
| YHTYKDSRTGFFMGQHSCMS | inactive |
| YIGIHLTSFRSTSSYYDRVL | inactive |
| YIGTYLLMSYGDSRPRKEMR | 1.47 ± 0.088 |
| YIHIGAM | inactive |
| YIKRTIFTYYYRERMIADSY | inactive |
| YILNITNLWSLCLCRLCRKD | 3.08 ± 0.078 |
| YINSFCTRKSYIY | inactive |
| YIQSNCEFMHPVCIIIFACV | 1.16 ± 0.11 |
| YIRIDTGLLCVCGLSQEGVV | inactive |
| YISSFRGDIVIY | inactive |
| YISSPSIWLCISCEHRGTSA | 2.92 ± 0.07 |
| YIYDSLWW | inactive |
| YIYVIGWGNVLCGI | 2.22 ± 0.079 |
| YKANFMGFSIYKRVGTRVWQ | 0.15 ± 0.75 |
| YKDIRCGWLMFGVANLQ | inactive |
| YKFGVTPWLRFILSNVRKMM | inactive |
| YKGFKRIGLEGQFVSSYLFY | inactive |
| YKQHYRRSRHCIKHYVGGSE | inactive |

| Substance | amyloid nucleation score |
| --- | --- |
| YKVKIPMVCAVISGKSTWVG | inactive |
| YLDKCIVVCFRVRNSNSFWL | 2.42 ± 0.065 |
| YLDKRYVVGVFMLDSNLDLS | inactive |
| YLDNVFNGPAFLYSGSRDR | 1.02 ± 0.18 |
| YLDRKVCSGNALRYLK | inactive |
| YLFSELYMLNLSRFAK | inactive |
| YLGRFNSKFMTSVLIMYYP | inactive |
| YLICLVWKELLARAHIAELC | 0.28 ± 0.2 |
| YLIGRGVMVFNFPWLLHHTN | 1.58 ± 0.1 |
| YLIGYDT | 0.366 ± 0.65 |
| YLLCF | inactive |
| YLLLDYGTRSFLYDRYRYIR | 0.067 ± 0.68 |
| YLLMTGVWWYYQMCVVVYM | inactive |
| YLSGIPTVVIHVIFGMKDW | inactive |
| YLSGKLFTRAP | inactive |
| YLSPVKRRYD | inactive |
| YLTCVVKRTVH | inactive |
| YLVYNYFMRDHWGLSVYLSR | 0.641 ± 0.18 |
| YLWARNGDLLLSCCSLNSCM | 2.52 ± 0.061 |
| YMCGSGCF | inactive |
| YMCKCSYVEMTHSA | inactive |
| YMGPKDSELDSNRAGCDMSC | inactive |
| YMGYWFKFFTFSGDQVTIGR | 0.718 ± 0.14 |
| YMLLQERLECSSLVDVSYVR | inactive |

| Substance | amyloid nucleation score |
| --- | --- |
| YMRAIHRCCAYLVRGLGSGT | inactive |
| YMRSIGSIFFILYCMQSAHG | 0.121 ± 0.33 |
| YNGFSLIRFILFAHG | inactive |
| YNLRYLVYYLDLLSPVNQMG | inactive |
| YNNTVCL | inactive |
| YNSFEFGVMSAL | inactive |
| YNVSINYVGENDGWEACFLS | 0.666 ± 0.12 |
| YPHREQVRRSL | inactive |
| YPRPLFVRNLDVFHWLYTAV | inactive |
| YQLFWRLALFCPVYGCVYLM | -0.027 ± 0.35 |
| YQVHWFSNYTTAWMNYVSTV | inactive |
| YQVRV | 0.056 ± 0.33 |
| YRAFTFIGCLNGLTNQHFFY | 2.4 ± 0.059 |
| YRDFSEGSFPLIRVLMGMVG | inactive |
| YRDRFAKSSYKSPKMYQYGS | inactive |
| YRELSTLREEMHIRY | inactive |
| YRGKIGTWECGVISYETAAT | inactive |
| YRGLGRDSHTHCRNHVLLTL | inactive |
| YRINDKSFNVISGIVFSVVR | inactive |
| YRKLVVSPLGILPKYRTPCC | inactive |
| YRLAN | inactive |
| YRLQSLNPPISPVNHTNCSS | inactive |
| YRLRNSS | inactive |
| YRMSR | 1.36 ± 0.1 |

| Substance | amyloid nucleation score |
| --- | --- |
| YRNLWNIHTVISIASL | inactive |
| YRQRWSRLCAGQSLYNCGKC | inactive |
| YRRAREWGNDDFLNG | 0.785 ± 0.12 |
| YRYLVFLRLNLSLRILFGFK | inactive |
| YRYNNLKRCGNSAQWLAISS | -0.08 ± 0.34 |
| YSAAYEIIIFICQCCNLKVG | inactive |
| YSATGIPSCWRLNFVENLRT | inactive |
| YSDLKSFLLNVIGRNKSIGM | inactive |
| YSEKDLIHRRIFVVNGRS | 1.13 ± 0.12 |
| YSGLDSCVD | inactive |
| YSIKNGYGFRQSWYKQVLKL | inactive |
| YSKEWVFISIIQKLADGQCN | -0.182 ± 0.66 |
| YSKFFTENVYNSISGAMPHF | inactive |
| YSLNCYYFSLGLN | inactive |
| YSLNGAY | inactive |
| YSLRVHSAYIVVKYII | inactive |
| YSLVYAYMESTMYYCLGLRM | inactive |
| YSMRRTDIHPVVFRQ | inactive |
| YSNRVGNAYMGSLKTSWHVM | inactive |
| YSRMCLVY | inactive |
| YSRSGISFFTGRHKLFSMYG | inactive |
| YSRTDSQGMTNEMVNLGVDV | inactive |
